Measurements as given in patent publication US20260049134A1 (UNIVERSITY OF FLORIDA RESEARCH FOUNDATION, published 2026).
Numbering of substitutions follows the chain as printed. Names may count otherwise.

B1: TH9-0022 (antibody, human IgG1, kappa, L234A L235A, V domains shown)
VH: QSLEESGGRLVTPGTPLTLTCTVSGFSLSSYAMNWVRQAPGKGLEWIGIINSYGSTYYASWAKGRFTISKTSTTVDLKITSPTTEDTATYFCARVTYDSYGYGYAPYGMDLWGPGTLVTVSS
VL: LVMTQTPSSTSNAVGGTVTIKCQASQSIGNVLAWYQQKPGQPPKLLIYAASTLASGVPSRVGGSRSGTEYTLTISGVQREDAATYYCLGSDSDSDIAFGGGTELEILR
notes: also called TH9-022; negative control IgG1
B2: HW-101 chimeric rabbit-human IgG1 LA/LA/PG (antibody, V domains shown)
VH: QEQLVESGGRLVTPGTPLTLTCKASGFSLGKYDMSWVRQAPGKGLEWIGTIYAGSGSTWYASWAKGRFTISKTSTTVDLKMTSLTTEDTATYFCARDFLGVNSIWGPGTLVTISS
VL: SFVLTQPASVQVNLGQTVSLTCTADTLSRSYASWYQQKPDQAPVLLIHRDTSRPSGVPDRFSGSNSGNTATLTISGAQAGDEADYYCATSDGSGSNFHFVFGGGTQLTVTG
notes: Fc-silenced (L234A/L235A/P329G) IgG1, lambda; Alexa Fluor 647-labeled in single-step flow cytometry; Cluster C-97
B3: HW-113 chimeric rabbit-human IgG1 LA/LA/PG (antibody, V domains shown)
VH: QKQLVESGGGLVQPGGSLTLTCTVSGFSLNKYYMGWFRQAPGKGLEWIGVISRSGDTYYSSWAKGRFTISKASTTVDLRITSPTTEDTATYFCARDASSPGFHGDRLDLWGQGTLVTVSS
VL: B2 VL with D40G, H48Y, N65S, S93I, F97Y, H98L, F99W
notes: Fc-silenced (L234A/L235A/P329G) IgG1, lambda; Alexa Fluor 647-labeled in single-step flow cytometry
B4: HW-97 chimeric rabbit-human IgG1 LA/LA/PG (antibody, V domains shown)
VH: QKQLVESGGRLVTPGTPLTLTCTVTGIDLSSHGMSWVRQAPGKGLEWIGVIYPSGSTWYASWARGRFTISKTSTTVDLKMTSLTTEDTATHFCARGDVGGADNNIWGPGTLVTVSS
VL: B2 VL with N13D, D25E, D40G, H48Y, N65S, N96S, F97Y, H98Q, F99Y
notes: Fc-silenced (L234A/L235A/P329G) IgG1, lambda; Alexa Fluor 647-labeled in single-step flow cytometry; Prototype of cluster C-97
B5: HW-8 chimeric rabbit-human IgG1 LA/LA/PG (antibody, V domains shown)
VH: QSLEESGGRLVTPGTPLTLTCTVSGFSLSSYAMSWVRQAPGKGLEWIGAISTGGSTTYASWAKGRFTISKTSSTTVDLKMTSLTTEDTATYFCVRHFRLWGPGTLVTISS
VL: QVLTQTPSSVSAAVGGTVTIKCQASQSIGSALAWFQQKPGQRPKLLIYRASNLASGVPSRFKGSGSGTEFALTISGVQREDAATYYCLGGAAAVWAFGAGTNVEIKR
notes: Fc-silenced (L234A/L235A/P329G) IgG1, kappa; Alexa Fluor 647-labeled in single-step flow cytometry; Cluster C-45
B6: HW-1 chimeric rabbit-human IgG1 LA/LA/PG (antibody, V domains shown)
VH: QSLEESGGGLFKPTDTLTLTCTASGFSLGSSYAISWVRQAPGKELEWIGTIDSGRAYYARWAKSRSTITRNTNENTVTLKMTSLTAADTATYFCARDLIPTYSQDIWGPGTLVTISS
VL: B2 VL with S30R, D40G, H48Y, N65S, S95N, N96S, F97Y, H98Q, F99Y, G111S
notes: Fc-silenced (L234A/L235A/P329G) IgG1, lambda; Alexa Fluor 647-labeled in single-step flow cytometry; Prototype of cluster C-1
B7: HW-17 chimeric rabbit-human IgG1 LA/LA/PG (antibody, V domains shown)
VH: QSLGESRGRLVTPDETLTLTCTVSGIDLSSNAMSWVRQAPGEGLEWIGTINTGGRAYYASWAKGRFTISRTSTTVDLKMTSLTTEDTATYFCARERYSDGRAYDIWGPGTLVTISS
VL: SFVLTQPASVQVNLGQTVSLTCTADTLSRRYASWYQQKPGQAPVLLIYTDSNRPSGIPDRFSGSSSGNTATLTISGAQAGDEADYYCATDDGSGSIYQYVFGGGTQLTVTG
notes: Fc-silenced (L234A/L235A/P329G) IgG1, lambda; Alexa Fluor 647-labeled in single-step flow cytometry; Cluster C-1
B8: HW-56 chimeric rabbit-human IgG1 LA/LA/PG (antibody, V domains shown)
VH: QSVKESEGGLFKPTDTLTLTCTASGFTVSTNAVTWVRQAPGNGLEYIGTIGRSGSAYFASWAKRRSTLTRDINLNTVTLKMTSLTAADTATYFCVRGSPGYRTAISIWGPGTLVTISS
VL: AVMTQTPSSTSAAVEGTVTINCQASQSISNRLSWFQQKPGQPPKLLIYQASTLASGVPSRFKGSGSGTEFTLTISGVQREDAATYYCLGSYSSSDASFGGGTKLEIKR
notes: as for B5
B9: HW-28 chimeric rabbit-human IgG1 LA/LA/PG (antibody, V domains shown)
VH: QKQLVESGGRLVTPGTPLTLTCTASGFSLSSNAMSWVRQAPGEGLQWIGTISSGGSTYYASWAKGRFTISKTSTTVTLKMTSLTTEDTATYFCARGADLHRLWGPGTLVTVSS
VL: SFVLTQPASVQVNLGQTVSLTCTGKPLSRSFASWYQQKPGQAPVLVIYRDTSRPSGVPDRFSGSSSGNTATLTISGAQAGDEADYYCATSDGSGSSYQYVFGGGTQLTVTG
notes: Fc-silenced (L234A/L235A/P329G) IgG1, lambda; Alexa Fluor 647-labeled in single-step flow cytometry; Cluster C-45
B10: HW-81 chimeric rabbit-human IgG1 LA/LA/PG (antibody, V domains shown)
VH: QKQLVESGGGLVTPGGTLTLTCTVSGFSLSSNGVSWVRQAPGKGLEYIGLIRSIGSTYYATWAKGRFTISKTSTTVDLKITSPTTEDTATYFCARGGYRNGFKLWGPGTLVTVSS
VL: QPVLTQSPSVSAALGASAKLTCTLSSAHKTYYIEWYQQQHPGKAPRYLMQLQSDGSYTKGTGVPDRFSGSSSGADRYLIISSVQAEDEADYICGVIDSAVYVFGGGTQLTVTG
notes: as for B9
B11: HW-42 chimeric rabbit-human IgG1 LA/LA/PG (antibody, V domains shown)
VH: QSVKESEGGLFKPADTLTLTCTVSGFSLSSNEISWVRQAPGEGLEYIGIIDTGGRAYYAVWARSRSTITRNTNLNTVTLKMTSLTAADTATYFCARGGVDTEWYAFSSWGPGTLVTVPS
VL: B7 VL with Y48F, T49R, S51T, N52S, I57V, N68D, D90S, I96N
notes: as for B7
B12: HW-25 chimeric rabbit-human IgG1 LA/LA/PG (antibody, V domains shown)
VH: QSLEESGGRLVTPGTPLTLTCTVSGFSLSSYAMGWVRQAPGKGLEWIGIIDSRGSTYYATWAKGRFTISKTSTTVDLKITSPTTEDTATYFCAREDSYYYDSFNLWGPGTLVTVSS
VL: B7 VL with T49R, S51T, N52S, I57V, D90S, I96S, Y99C
notes: as for B7
B13: HW-70 chimeric rabbit-human IgG1 LA/LA/PG (antibody, V domains shown)
VH: QSLEESGGRLVTPGTPLTLTCTVSGFSLSSNAMSWVRQAPGKGLEWIGTIDGYGYTYYASWAKGRFTVSKTSTTVDLKITSPTTEDTATYFCAREIYLGSNFWGPGTLVTISS
VL: B7 VL with T49R, S51T, N52S, I57V, D90A, I96S, Y99F
notes: as for B7

Biological target: T1, PTPRG-Fc (ECD of human PTPRG, aa 20-736, fused to human Fc gamma 1) (human, UniProt P23470 20-736)
T1 construct: Made in-house in Expi293 cells; Used in ELISA and SPR; also called recombinant PTPRG-Fc; PTRPG; not shown: human IgG1 Fc (Fc gamma 1) after the hinge
T1 sequence: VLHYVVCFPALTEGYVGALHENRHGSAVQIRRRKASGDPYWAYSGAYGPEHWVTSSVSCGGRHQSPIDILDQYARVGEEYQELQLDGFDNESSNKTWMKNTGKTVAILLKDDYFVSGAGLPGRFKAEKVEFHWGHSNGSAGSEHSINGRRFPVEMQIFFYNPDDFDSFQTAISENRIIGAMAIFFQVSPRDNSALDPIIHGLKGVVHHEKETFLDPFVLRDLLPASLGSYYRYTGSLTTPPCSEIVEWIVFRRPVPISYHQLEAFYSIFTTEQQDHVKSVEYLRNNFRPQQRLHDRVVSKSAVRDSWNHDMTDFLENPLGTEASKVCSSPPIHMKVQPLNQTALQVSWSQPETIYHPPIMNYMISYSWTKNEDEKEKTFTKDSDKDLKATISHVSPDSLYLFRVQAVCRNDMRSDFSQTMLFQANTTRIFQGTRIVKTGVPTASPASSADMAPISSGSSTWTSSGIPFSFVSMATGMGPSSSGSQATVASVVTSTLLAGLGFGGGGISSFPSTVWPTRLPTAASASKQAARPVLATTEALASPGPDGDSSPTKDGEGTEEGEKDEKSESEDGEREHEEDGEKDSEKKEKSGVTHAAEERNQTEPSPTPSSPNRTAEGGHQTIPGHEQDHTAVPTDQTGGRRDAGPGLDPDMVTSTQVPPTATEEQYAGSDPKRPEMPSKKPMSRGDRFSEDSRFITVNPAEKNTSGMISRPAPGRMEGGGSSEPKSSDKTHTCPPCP
Test: ELISA on coated protein

Row | Binder | binding result
1 | B1 | no binding (tested: 150 ng IgG1 per well)
2 | B2 | no binding (tested: 150 ng IgG1 per well)
3 | B3 | no binding (tested: 150 ng IgG1 per well)
4 | B4 | no binding (tested: 150 ng IgG1 per well)
5 | B5 | no binding (tested: 150 ng IgG1 per well)

Biological target: T2, CADM1-His (Acro Biosystems) (human, UniProt Q9BY67 45-374)
T2 construct: Bought; also called CADM1/IGSF4A; not shown: His tag of the bought protein
T2 sequence: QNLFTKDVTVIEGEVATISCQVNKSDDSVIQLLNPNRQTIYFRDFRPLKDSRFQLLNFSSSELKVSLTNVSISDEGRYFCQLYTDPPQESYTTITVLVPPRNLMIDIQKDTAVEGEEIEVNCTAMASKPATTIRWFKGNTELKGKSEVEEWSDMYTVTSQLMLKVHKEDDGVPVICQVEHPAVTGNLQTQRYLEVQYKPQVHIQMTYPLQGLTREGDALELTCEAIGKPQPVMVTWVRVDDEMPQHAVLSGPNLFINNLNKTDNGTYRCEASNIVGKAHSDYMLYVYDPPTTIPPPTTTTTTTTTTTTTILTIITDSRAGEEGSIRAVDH
Test: ELISA on coated protein

Row | Binder | binding result
6 | B1 | no binding (tested: 150 ng IgG1 per well)
7 | B3 | no binding (tested: 150 ng IgG1 per well)
8 | B6 | no binding (tested: 150 ng IgG1 per well)
9 | B7 | no binding (tested: 150 ng IgG1 per well)
10 | B5 | no binding (tested: 150 ng IgG1 per well)

Biological target: T1, PTPRG-Fc (ECD of human PTPRG, aa …)
Test: ELISA on coated PTPRG-Fc
Method: Recombinant purified ECDs (50-150 ng) of each putative target protein were coated, incubated with 150 ng of the indicated primary antibody, and binding was detected using a peroxidase-conjugated anti-human Fab secondary antibody. Heatmap represents averages of technical triplicates. (8B) Target validation via siRNA knockdown. H929 cells were transfected with siRNA pools targeting the putative antibody targets ICAM1, CADM1, and PTPRG. Cells were then subjected to cognate IgG binding analysis via flow cytometry. (NT, non-targeting siRNA).
ELISA ELISA was conducted as described previously. Briefly, 50-150 ng of antigen was coated overnight in half-area 96-well plates at 4° C., blocked with 3% BSA at 37° C. for 1 h, and 150 ng of chimeric rabbit/human IgG1 was added, incubating for 2 h at 37° C. […] After incubating at 37° C. for 15 min-1 h (depending on intensity of controls), data were acquired using a SpectraMax M5 plate reader (Molecular Devices).

Row | Binder | binding result
11 | B8 | no binding (tested: 150 ng IgG1 per well)
12 | B9 | no binding (tested: 150 ng IgG1 per well)
13 | B10 | no binding (tested: 150 ng IgG1 per well)

Biological target: T3, CADM1, endogenous in H929 multiple myeloma cells (human, UniProt Q9BY67 45-442)
T3 construct: Native protein on H929 cells (flow cytometry, siRNA knockdown) and in H929 lysates (IP/MS); RPMI-8226 cells were used for sorting with HW-97; also called IGSF4A
T3 sequence: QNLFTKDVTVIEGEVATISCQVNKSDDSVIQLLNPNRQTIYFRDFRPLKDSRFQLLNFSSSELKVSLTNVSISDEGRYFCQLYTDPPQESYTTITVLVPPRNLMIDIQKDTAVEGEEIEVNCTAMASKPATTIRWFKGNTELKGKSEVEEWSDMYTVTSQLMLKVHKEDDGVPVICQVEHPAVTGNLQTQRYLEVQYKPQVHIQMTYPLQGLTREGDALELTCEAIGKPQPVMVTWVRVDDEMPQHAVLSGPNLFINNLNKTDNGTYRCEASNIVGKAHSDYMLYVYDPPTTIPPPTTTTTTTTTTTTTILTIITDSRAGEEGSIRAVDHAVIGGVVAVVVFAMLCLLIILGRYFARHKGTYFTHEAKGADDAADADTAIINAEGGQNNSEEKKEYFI
Test: flow cytometry, H929 + vehicle; None 513

Row | Binder | mAb binding (MFI)
14 | B2 | 5940
15 | B4 | 9510

Biological target: T4, PTPRG, endogenous in H929 multiple myeloma cells (human, UniProt P23470 20-1445)
T4 construct: Native protein on H929 cells (flow cytometry, siRNA knockdown) and in H929 lysates (IP/MS); also called phosphatase receptor type γ
T4 sequence (P23470 20-1445 limits assumed): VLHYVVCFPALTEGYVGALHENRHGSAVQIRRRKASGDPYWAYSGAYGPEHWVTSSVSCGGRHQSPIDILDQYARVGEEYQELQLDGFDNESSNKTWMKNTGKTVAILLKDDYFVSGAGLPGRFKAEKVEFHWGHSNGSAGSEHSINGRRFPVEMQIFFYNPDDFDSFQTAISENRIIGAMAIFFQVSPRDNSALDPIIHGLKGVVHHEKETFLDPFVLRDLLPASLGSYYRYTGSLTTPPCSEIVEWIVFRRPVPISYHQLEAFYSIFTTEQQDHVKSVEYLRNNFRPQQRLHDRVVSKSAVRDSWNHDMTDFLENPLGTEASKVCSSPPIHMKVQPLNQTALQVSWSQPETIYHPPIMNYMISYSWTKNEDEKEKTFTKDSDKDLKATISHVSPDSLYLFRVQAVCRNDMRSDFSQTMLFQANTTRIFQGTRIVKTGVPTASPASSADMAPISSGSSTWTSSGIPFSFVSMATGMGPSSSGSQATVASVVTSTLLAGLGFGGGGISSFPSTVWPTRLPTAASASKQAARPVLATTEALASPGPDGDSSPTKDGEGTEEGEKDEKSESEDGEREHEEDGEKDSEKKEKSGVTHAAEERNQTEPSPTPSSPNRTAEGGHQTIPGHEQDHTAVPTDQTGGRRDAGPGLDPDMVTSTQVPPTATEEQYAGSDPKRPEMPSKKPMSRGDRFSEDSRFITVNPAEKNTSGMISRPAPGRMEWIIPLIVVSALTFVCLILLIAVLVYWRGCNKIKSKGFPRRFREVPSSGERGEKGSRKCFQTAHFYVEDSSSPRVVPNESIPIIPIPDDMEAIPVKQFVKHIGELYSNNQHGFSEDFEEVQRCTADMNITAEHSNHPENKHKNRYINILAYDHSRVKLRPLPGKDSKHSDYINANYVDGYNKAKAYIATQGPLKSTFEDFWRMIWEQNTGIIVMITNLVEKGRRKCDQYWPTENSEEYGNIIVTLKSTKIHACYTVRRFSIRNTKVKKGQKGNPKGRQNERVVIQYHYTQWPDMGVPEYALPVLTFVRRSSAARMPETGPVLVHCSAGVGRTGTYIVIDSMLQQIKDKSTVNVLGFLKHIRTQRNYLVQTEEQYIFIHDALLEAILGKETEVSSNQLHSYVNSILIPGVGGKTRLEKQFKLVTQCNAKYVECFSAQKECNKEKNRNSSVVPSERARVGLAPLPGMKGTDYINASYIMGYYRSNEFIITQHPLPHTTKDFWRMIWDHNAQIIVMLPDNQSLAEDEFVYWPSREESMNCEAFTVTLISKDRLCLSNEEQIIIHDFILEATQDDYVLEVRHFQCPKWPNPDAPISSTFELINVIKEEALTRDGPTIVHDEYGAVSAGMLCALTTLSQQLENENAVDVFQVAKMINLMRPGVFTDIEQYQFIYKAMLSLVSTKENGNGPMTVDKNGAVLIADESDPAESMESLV
Test: flow cytometry, H929 + ICAM1 siRNA; None 1.06

Row | Binder | Cells stained (%)
16 | B11 | 96.9
17 | B12 | 97.2
18 | B13 | 97.4
19 | B6 | 98.2
20 | B7 | 98.4
